Assay [1] addresses T1, hu_CXCR2_N-term (1-17)-BSA (human; bovine, coupled to carrier protein BSA; C-terminal cysteine introduced to enable coupling).
T1 construct: Synthetic linear peptide chemically coupled to the carrier; also called CXCR2_aa1-17_BSA; CXCR2 aa1-17 BSA
The assay can be described thus: SPR (Biacore), peptide-BSA immobilized, Fab analyte, steady-state fit. On the procedure:
(§1) Affinities (KD values) were determined using SPR (Biacore T200, GE Healthcare) using the following setup: The antigens (hu_CXCR2_N-term (1-17)-BSA, or hu_CXCR2_N-term (1-17)-Trf, respectively) were covalently coupled to a CM5 sensor chip using NHS/EDC chemistry. Antigens were diluted in 10 mM Acetate pH4.5 to a concentration of approx. 100 μg/mL. The final immobilization level was approx. 400 RU for the BSA-coupled peptide and 200 RU for the TRF-coupled peptide. HBS-EP pH7 was used as running buffer throughout the experiment at a flow rate of 30 μL/min. Fab fragments were used as samples (monomer portion at least 90% as determined by HP-SEC, Superdex 75 PC3.2/30 (GE Healthcare). Of each sample, a 2n serial dilution row from 31.25-1000 nM was prepared (6 concentrations) and injected, followed by a blank injection, which was later used for double referencing. Association of Fab samples was recorded for 240 s, and dissociation was monitored for 300 s. At the end of each cycle bound (Fab−) sample was removed from the sensor with one 30 s injection of MgCl2 (3M).
(§2) Most of the recorded binding curves deviated from the expected bimolecular binding model (1:1), but the sensorgrams seemed to reach equilibrium towards the late association phase. Therefore, the binding data (report point late association) was fitted to a steady state model. The Req vs. concentration plots/fits followed the assumed one-binding-site model, and the resulting KD were reported. EC50 values determined by ELISA were in the single digit nanomolar range on N-terminal CXCR2 peptides. […] Respective results of selected 6 Fabs are summarized in Table 1 (data of one representative experiments are shown).
On the technique in general: SPR reads the build-up and loss of mass on a sensor chip optically.

The target in assay [2] is T1, hu_CXCR2_N-term (1-17)-BSA. Nature of the assay: ELISA, coated peptide-BSA, Fab. Here is the method:
(§3) 384-well Maxisorp plates (Nunc; Cat. #460518) were coated with respective CXCR2 and control peptides coupled either to BSA or Transferrin (TRF) at 1-5 μg/mL and incubated o/n at 4° C. […] After three washing steps, antibodies were added at 5-10 μg/mL and titrated in some experiments. Antibodies were incubated 1 h at room temperature and plates were subsequently washed. Binding of anti-CXCR2 antibodies was detected by using alkaline phosphatase-conjugated anti-human IgG, (Dianova, Cat #109-055-097). AttoPhos fluorescence substrate (Roche, Cat #1484281) was added according to instructions of the manufacturer and fluorescence was measured (excitation at 430 nm, emission at 535 nm) using a microplate reader.
(§4) The Fabs were further tested including affinity determination via BiaCore, EC₅₀ determination in ELISA and FACS, as well as the evaluation of cellular cytotoxicity via secondary immunotoxin (Saporin) upon antibody internalization (Fab-ZAP). Respective experimental settings as outlined in Example 3 were used.
A general note: An ELISA detects its analyte on a solid surface through an enzyme-linked reagent.

In assay [3] the target is T2, hu_CXCR2_N-term (1-17)-Trf (human, coupled to carrier protein human transferrin; C-terminal cysteine introduced to enable coupling).
T2 construct: Synthetic linear peptide chemically coupled to the carrier; also called CXCR2_aa1-17_TRF; N-terminal peptide aa1-17, Transferrin-coupled
The assay can be described thus: ELISA, coated peptide-TRF, Fab. Here is the method: as §3, §4

In assay [4] the target is T3, human CXCR2 (human, UniProt P25025 1-360).
T3 construct: Expressed on Flp-In CHO cells (FACS, Fab-ZAP, ADCC, CDC) or on bought PathHunter CHO cells (beta-arrestin assay); the construct in the PathHunter cells is not described; also called chemokine receptor CXCR2; CXCR2 CHO Flp-In cells
T3 sequence: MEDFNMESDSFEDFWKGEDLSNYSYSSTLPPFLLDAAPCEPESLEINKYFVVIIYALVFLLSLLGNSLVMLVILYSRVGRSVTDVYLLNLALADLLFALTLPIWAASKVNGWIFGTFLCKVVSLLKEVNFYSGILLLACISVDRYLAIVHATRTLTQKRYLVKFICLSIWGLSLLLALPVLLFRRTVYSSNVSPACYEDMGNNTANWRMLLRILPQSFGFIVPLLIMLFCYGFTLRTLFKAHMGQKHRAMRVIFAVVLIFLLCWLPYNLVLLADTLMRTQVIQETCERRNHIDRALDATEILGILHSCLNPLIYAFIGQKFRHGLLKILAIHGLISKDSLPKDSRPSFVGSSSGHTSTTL
Nature of the assay: FACS, CXCR2 CHO Flp-In cells, Fab. On the procedure:
(§5) Human CXCR2-expressing Flp-In™ CHO cells were harvested at ˜80% confluence washed once with PBS (Gibco, Cat #14190-094) and detached using Versene (Invitrogen, Cat #15040-033). Subsequently, cells were counted and centrifuged at 250×g for 5 min at 4° C. Afterwards, cells were diluted in Superblock (Thermo Fisher Perbio Science, Cat #37515) to a cell concentration of 2E+05-1E+06/mL and 100 μL/well were transferred to 96-well microtiter plate (Nunc, Cat#163320). Cells were once centrifuged, supernatant discarded and antibodies added at 1 μg/mL (unless stated otherwise), incubated for 1 h at 4° C. and washed twice with FACS buffer (PBS/3% FCS/0.02% NaN3). Binding of anti-CXCR2 antibodies was detected by incubation of Phycoerythrin-conjugated anti-human IgG (Dianova, Cat #109-116-097) for 1 h at 4° C. Samples were subsequently measured using FACS Array (Becton Dickinson).
as §4

The target of assay [5] is T4, N-Terminal Peptide aa1-17 (Transferrin- or BSA-Coupled) (human, also: coupled to carrier protein (BSA or transferrin), site not given here).
T4 peptide: MEDFNMESDSFEDFWKGC
Nature of the assay: initial screening, Fab; carrier of the peptide not stated.

Assay [6] has as its target T5, peptide derived of extracellular domain three (human, coupled to a carrier protein (BSA or transferrin, not stated which)).
T5 construct: also called ECL3 peptide
T5 peptide: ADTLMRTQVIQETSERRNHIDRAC
The assay can be described thus: ELISA, Fab. On the procedure: as §3, §4

Assay [7] has as its target T2, hu_CXCR2_N-term (1-17)-Trf. The assay can be described thus: SPR (Biacore), peptide-TRF immobilized, Fab analyte, steady-state fit. On the procedure: as §1, §2
In assay [8] the target is T1, hu_CXCR2_N-term (1-17)-BSA. The assay can be described thus: ELISA, coated peptide-BSA, IgG1. Here is the method: as §3
The target in assay [9] is T6, ECL3 peptide aa273-295, BSA-coupled (human; bovine, coupled to carrier protein BSA; C-terminal cysteine introduced to enable coupling).
T6 construct: also called CXCR2 aa273-295 BSA; peptides representing the extracellular domain 3
The assay can be described thus: ELISA, coated peptide-BSA, IgG1. On the procedure:
as §3

Assay [10] deals with T7, N-terminal peptide aa1-48, BSA-coupled (human; bovine, coupled to carrier protein BSA; C-terminal cysteine introduced to enable coupling).
T7 construct: also called CXCR2 aa1-48 BSA
Nature of the assay: ELISA, coated peptide-BSA, IgG1. Here is the method:
as §3

The target of assay [11] is T3, human CXCR2. Nature of the assay: FACS, CXCR2 CHO Flp-In cells, IgG1. On the procedure: as §5
(In flow cytometry, cells or beads pass a laser one at a time.)

Where no end group is shown, it is not given here.

T2 sequence (P02787 20-698 limits assumed): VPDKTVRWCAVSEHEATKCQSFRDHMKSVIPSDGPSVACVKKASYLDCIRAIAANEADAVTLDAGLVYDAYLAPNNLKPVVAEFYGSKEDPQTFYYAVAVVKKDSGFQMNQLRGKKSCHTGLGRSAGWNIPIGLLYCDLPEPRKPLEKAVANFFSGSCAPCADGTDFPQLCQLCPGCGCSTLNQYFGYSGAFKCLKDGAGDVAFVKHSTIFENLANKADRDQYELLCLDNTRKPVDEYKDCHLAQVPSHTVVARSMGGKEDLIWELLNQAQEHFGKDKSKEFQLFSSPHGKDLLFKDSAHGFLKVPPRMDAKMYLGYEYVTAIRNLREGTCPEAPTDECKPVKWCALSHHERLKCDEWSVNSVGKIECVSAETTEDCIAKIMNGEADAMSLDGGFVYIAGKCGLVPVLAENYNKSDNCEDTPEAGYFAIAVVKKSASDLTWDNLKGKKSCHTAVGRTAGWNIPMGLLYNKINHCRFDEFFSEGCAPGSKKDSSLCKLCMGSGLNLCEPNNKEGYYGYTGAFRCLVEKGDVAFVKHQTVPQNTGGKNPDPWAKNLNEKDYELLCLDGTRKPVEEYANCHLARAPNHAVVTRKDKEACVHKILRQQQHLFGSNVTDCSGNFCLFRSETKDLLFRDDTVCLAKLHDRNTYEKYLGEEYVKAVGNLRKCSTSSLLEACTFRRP
T1 sequence (P02769 25-607 limits assumed): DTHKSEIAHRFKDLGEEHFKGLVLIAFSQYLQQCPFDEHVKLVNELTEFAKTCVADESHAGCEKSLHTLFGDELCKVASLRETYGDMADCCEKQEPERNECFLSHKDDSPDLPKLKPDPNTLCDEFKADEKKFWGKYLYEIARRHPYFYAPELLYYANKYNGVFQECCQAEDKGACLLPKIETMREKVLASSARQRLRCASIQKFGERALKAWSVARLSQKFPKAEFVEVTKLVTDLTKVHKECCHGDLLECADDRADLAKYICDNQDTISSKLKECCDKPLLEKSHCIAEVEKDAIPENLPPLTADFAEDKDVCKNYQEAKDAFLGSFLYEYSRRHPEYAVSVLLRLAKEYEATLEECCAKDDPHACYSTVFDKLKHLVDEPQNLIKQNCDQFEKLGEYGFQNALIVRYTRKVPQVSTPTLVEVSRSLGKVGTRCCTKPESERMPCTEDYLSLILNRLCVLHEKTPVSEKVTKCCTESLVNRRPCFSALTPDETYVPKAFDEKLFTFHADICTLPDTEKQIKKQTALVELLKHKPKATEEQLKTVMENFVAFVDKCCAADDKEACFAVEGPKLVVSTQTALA
T6 sequence (P02769 25-607 limits assumed): as above
T7 sequence (P02769 25-607 limits assumed): as above

B1: CX2-Mab #5 (Fab format) (Fab, V domains shown)
VH: EVQLLESGGGLVQPGGSLRLSCAASGFTFNSNAMSWVRQAPGKGLEWVSFISYSGSHTYYADSVKGRFTISRDNSKNTLYLQMNSLRAEDTAVYYCARYTRFLSRPAFDPWGQGTLVTVSS
VL: DIVLTQPPSVSGAPGQRVTISCTGSSSNIGAGYDVHWYQQLPGTAPKLLIYYNSKRPSGVPDRFSGSKSGTSASLAITGLQAEDEADYYCGAYDRKMNSYVFGGGTKLTVLG
Broadly, the Kd is the equilibrium constant for the complex coming apart. High values mean lower affinity, low ones higher affinity. As usually defined, the EC50 is the concentration needed to bring the measured effect to its halfway point. A higher EC50 goes with lower potency in that assay. As for B1, the figures for the Kd in assay [1] and in assay [7] were 146 nM and 149 nM, respectively. The EC50 in assay [2] is 0.6 nM; in assay [3] it was 0.5 nM; in the assay with human CXCR2 [4], more than 6000 nM. In assay [5], the signal over background was not below 5 fold. Besides, the binding result in assay [6] is listed as “no binding”.

B2: CX2-Mab #3 (Fab format) (Fab, V domains shown)
VH: EVQLLESGGGLVQPGGSLRLSCAASGFTFSSYWMSWVRQAPGKGLEWVSVISYSGSETFYADSVKGRFTISRDNSKNTLYLQMNSLRAEDTAVYYCARGRVGYAFDYWGQGTLVTVSS
VL: DIVLTQPPSVSGAPGQRVTISCSGSSSNIGVNYVNWYQQLPGTAPKLLIYSNNQRPSGVPDRFSGSKSGTSASLAITGLQAEDEADYYCQSRASGFYSVVFGGGTKLTVLG
B2: the Kd amounted to 393 nM in assay [1] and 317 nM in assay [7]. For the same molecule, the results for the concentration for a half-maximal effect (EC50) (in [2]; in [3]; with human CXCR2 [4]) were 4.7 nM, 2 nM and 105 nM, respectively. Besides, in [5], the signal over background was not below 5 fold. Besides, the binding result in assay [6] is on record as “no binding”.

B3: CX2-Mab #3.1 (antibody, IgG1, V domains shown)
VH: QVQLLESGGGLVQPGGSLRLSCAASGFTFSSYWMSWVRQAPGKGLEWVSVISYSGSETFYADSVKGRFTISRDNSKNTLYLQMNSLRAEDTAVYYCARGRVGYAFDYWGQGTLVTVSS
VL: DIVLTQPPSVSGAPGQRVTISCSGSSSNIGVNYVNWYQQLPGTAPKLLIYSNNQRPSGVPDRFSGSKSGTSASLAITGLQAEDEADYYCQTRAVHFARVVFGGGTKLTVLG
B3: the binding result (in assay [8]; in assay [9]; in [10]; with human CXCR2 [11]) was “binds” each time.

B4: CX2-Mab #6 (Fab format) (Fab, V domains shown)
VH: EVQLLESGGGLVQPGGSLRLSCAASGFTFSSYTMSWVRQAPGKGLEWVSAIHSSGSSTYYADSVKGRFTISRDNSKNTLYLQMNSLRAEDTAVYYCARVPAYYGFDHWGQGTLVTVSS
VL: DIELTQPPSVSVSPGQTASITCSGDSLGAFYVHWYQQKPGQAPVLVIYRTNNRPSGIPERFSGSNSGNTATLTISGTQAEDEADYYCASYASRNRVFGGGTKLTVLG
B4: the Kd came out at 353 nM in assay [1] and 251 nM in assay [7]. Moreover, the 50% effective concentration (EC50) was found to be 1.3 nM in assay [2], 0.5 nM in [3] and 195 nM in the assay with human CXCR2 [4]. In assay [5], this molecule showed a signal over background not below 5 fold. Also, the binding result in assay [6] was “no binding”.

B5: CX2-Mab #2 (Fab format) (Fab, V domains shown)
VH: QVQLVQSGAEVKKPGASVKVSCKASGYTFSRYAMHWVRQAPGQGLEWMGVINPYNGNTRYAQKFQGRVTMTRDTSISTAYMELSRLRSEDTAVYYCARGSHIQAGAFDYWGQGTLVTVSS
VL: DIQMTQSPSSLSASVGDRVTITCRASQGINNRLNWYQQKPGKAPKLLIYDGSSLQSGVPSRFSGSGSGTDFTLTISSLQPEDFATYYCQQYIHFPVTFGQGTKVEIKR
Consider B5, for which the equilibrium dissociation constant (Kd) in assay [1] worked out at 221 nM; in [7], 210 nM. In addition, the values for the EC50 (in assay [2]; in assay [3]; with human CXCR2 [4]) were 3.6 nM, 1.3 nM and more than 6000 nM, respectively. The molecule also displayed a signal over background in [5] not below 5 fold. The binding result in assay [6] is “no binding”.

B6: CX2-Mab #4 (Fab format) (Fab, V domains shown)
VH: EVQLLESGGGLVQPGGSLRLSCAASGFTFSSNGMSWVRQAPGKGLEWVSAISSSGSKTYYADSVKGRFTISRDNSKNTLYLQMNSLRAEDTAVYYCARGYGFDVWGQGTLVTVSS
VL: DIVLTQPPSVSGAPGQRVTISCSGSSSNIGVNIVNWYQQLPGTAPKLLIYSTSNRPSGVPDRFSGSKSGTSASLAITGLQAEDEADYYCATRDGISKSVVFGGGTKLTVLG
As to B6, the dissociation constant Kd in [1] came to 143 nM; in [7], 101 nM. Besides, the half-maximal effective concentration (EC50) in assay [2] amounted to 0.8 nM; in assay [3], 0.4 nM; in the assay with human CXCR2 [4], 136 nM. This molecule also registered a signal over background in assay [5] not below 5 fold. In addition, in [6], the binding result is reported as “no binding”.

B7: CX2-Mab #1 (Fab format) (Fab, V domains shown)
VH: QVQLVQSGAEVKKPGSSVKVSCKASGGTFSSYAISWVRQAPGQGLEWMGGIIPIVGEAKYAQKFQGRVTITADESTSTAYMELSSLRSEDTAVYYCARDSSGYDGYYAFAYWGQGTQVTVSS
VL: DIVLTQPPSVSGAPGQRGTISCSGSSSNIGSSSVNWYQQLPGTAPKLLIYRNNQRPSGVPDRFSGSKSGTSASLAITGLQAEDEADYYCGATDFSANQVVFGGGTKLTVLG
For B7, the Kd in [1] was determined as 534 nM; in assay [7], 269 nM. Besides, the EC50 was determined as 6.1 nM in [2], 1 nM in [3] and 365 nM with human CXCR2 [4]. Also, the signal over background in [5] is not below 5 fold. Further, in [6], the binding result is reported as “no binding”.

Values taken from patent US20160060347A1 (MorphoSys, published 2016).
